Assay results as given in US20240018237A1 (SICHUAN KELUN BIOTECH BIOPHARMACEUTICAL, published 2024).
Like-named read-outs stand apart in the source and are kept apart here.

How the values were obtained:
human ROR1 ECD protein [1] = biological target: T1, human ROR1 ECD protein (human, UniProt Q01973 30-406); assay: BLI (Octet), antibody on AHC sensor, ROR1 ECD in solution
T1 construct: range 30-406; Expressed in Expi293 or ExpiCHO cells; also called Recombinant human ROR ECD

[2] = biological target: T2, human ROR1 (full-length, on the cell surface) (human, UniProt Q01973 30-937); assay: flow cytometry, A549 cells
T2 construct: whole, on cells; the tumour cell lines carry their own ROR1; also called Ba/F3-ROR1 cells; Jeko-1

[3] = biological target: T2, human ROR1 (full-length, on the cell …); assay: flow cytometry, Jeko-1 cells
[4] = biological target: T2, human ROR1 (full-length, on the cell …); assay: cell-based or functional assay
[5] = biological target: T2, human ROR1 (full-length, on the cell …); assay: cell-based or functional assay; remark: listed apart in the source
[6] = biological target: T2, human ROR1 (full-length, on the cell …); assay: flow cytometry, Ba/F3-ROR1 cells
[7] = biological target: T2, human ROR1 (full-length, on the cell …); assay: flow cytometry, HT-29 cells
human ROR1 ECD protein [8] = biological target: T1, human ROR1 ECD protein; assay: BLI (Octet), antibody on AHC sensor, ROR1 ECD in solution, 1:1 model
Method: The dynamic affinities of humanized molecules 19F6-Hu35V1, 3D8-HuC24 and 38F8-Hu57 and positive control antibody UC961 to human ROR1 ECD protein were determined by Octet ForteBio method.

[9] = biological target: T2, human ROR1 (full-length, on the cell …); assay: flow cytometry, Ba/F3-ROR1 cells; remark: listed apart in the source
[10] = biological target: T2, human ROR1 (full-length, on the cell …); assay: flow cytometry on HT29 cells, MFI against antibody concentration
Source text: (§1) The affinity of the candidate antibodies to ROR1 on the surface of human cells was detected by flow cytometry. In addition to the Ba/F3-ROR1 overexpression cells, human mantle cell lymphoma cell line Jeko-1 (ATCC, Cat. No.: CRL-3006), human colon cancer cell line HT-29 (ATCC, Cat. No.: HTB-38), human lung cancer cell line A549 (ATCC, Cat. No.: CCL-185) were also used for the binding assay. The anti-human ROR1 antibody UC961 (for sequence, see WO2018237335A1) with mouse or human IgG1 Fc was used as a positive control, and the anti-2,4,6-trinitrophenol antibody (ATCC) with the corresponding mouse or human IgG1 Fc was used as a negative control. Mouse IgG isotype control (Thermo Fisher, Cat. No.: 31903) was also used as a negative control.

[11] = biological target: T3, human ROR2 extracellular domain (ECD) protein (human, UniProt Q01974 34-403); assay: ELISA on coated human ROR2 ECD protein (1 ug/mL), OD at 450 nm
T3 construct: extracellular domain; Bought protein; also called human ROR2 ECD protein; Sino Biologicals 16133-H08H
Method: It was confirmed by ELISA using extracellular domain (ECD) protein of human ROR2 that the binding specificity of the candidate antibodies to human ROR1 was higher than that of human ROR2. The specific method was as follows: 1 μg/mL human ROR2 extracellular domain (ECD) protein (Sino Biologicals, Cat. No.: 16133-H08H) was added in a 96-well ELISA plate (Thermo Fisher, Cat. No.: 5129) at 100 μL/well, for coating overnight at 4° C. 200 μL of washing buffer (1×TBS containing 0.05% Tween-20) was used to wash 3 times, different concentrations of eight purified mouse-anti-human ROR1 candidate antibodies and UC961 were added at 100 μL, incubated at 37° C. for 1 hour, and mouse-anti-human ROR2 antibody (R&D systems, Cat. No.: MAB2064) was used as a positive control. Washing was performed 3 times with 200 μL of washing buffer, 100 μL of anti-human IgG (Rockland Inc, Cat. No. 609-1304) or anti-mouse IgG secondary antibody (Rockland Inc, Cat. No. 610-1304) diluted at a ratio of 1:10000 were added to each well, incubated at 37° C. for 1 hour. Washing was performed 3 times with 200 μL of washing buffer, 100 μL of TMB (Thermo Fisher, Cat. No.: TMBW-1000-01) was added for color development in the dark for 10 minutes, then 100 μL of stop solution (Thermo Fisher, Cat. No.: 13361-100-10) was added to stop the color development, and reading was carried out by microplate reader at 450 nm.

[12] = biological target: T2, human ROR1 (full-length, on the cell …); assay: flow cytometry on A549 cells, MFI against antibody concentration
Source text: as §1

[13] = biological target: T2, human ROR1 (full-length, on the cell …); assay: flow cytometry on Jeko-1 cells, MFI against antibody concentration
Source text: as §1

[14] = biological target: T2, human ROR1 (full-length, on the cell …); assay: flow cytometry, Ba/F3-ROR1 cells; remark: listed apart in the source
Method: (§2) The affinities of the purified anti-human ROR1 chimeric antibodies binding to the Ba/F3-ROR1, Jeko-1, HT-29 and A549 cells were analyzed by flow cytometry. The specific experimental steps were as follows: the Ba/F3-ROR1, Jeko-1, HT-29 and A549 cells were incubated with the purified chimeric antibodies of different concentration gradients on ice for 30 minutes, and the anti-ROR1 antibody UC961 with human IgG1 and the anti-TNP antibody were used as positive and negative controls respectively.

[15] = biological target: T2, human ROR1 (full-length, on the cell …); assay: flow cytometry, Jeko-1 cells; remark: listed apart in the source
Method: as §2

[16] = biological target: T2, human ROR1 (full-length, on the cell …); assay: flow cytometry, HT-29 cells; remark: listed apart in the source
Method: as §2

human ROR1 ECD protein [17] = biological target: T1, human ROR1 ECD protein; assay: BLI (Octet), antibody on AHC sensor, ROR1 ECD in solution, 1:1 model; remark: listed apart in the source
Source text: Octet ForteBio is widely used in the detection of antibody-antigen dynamic affinity. This method was used to determine the dynamic affinities of the candidate chimeric antibodies 3D8-Chi, 19F6-Chi and 38F8-Chi and the positive control antibody UC961 to human ROR1.

[18] = biological target: T2, human ROR1 (full-length, on the cell …); assay: flow cytometry, A549 cells; remark: listed apart in the source
Method: as §2

T2 sequence (Q01973 30-937): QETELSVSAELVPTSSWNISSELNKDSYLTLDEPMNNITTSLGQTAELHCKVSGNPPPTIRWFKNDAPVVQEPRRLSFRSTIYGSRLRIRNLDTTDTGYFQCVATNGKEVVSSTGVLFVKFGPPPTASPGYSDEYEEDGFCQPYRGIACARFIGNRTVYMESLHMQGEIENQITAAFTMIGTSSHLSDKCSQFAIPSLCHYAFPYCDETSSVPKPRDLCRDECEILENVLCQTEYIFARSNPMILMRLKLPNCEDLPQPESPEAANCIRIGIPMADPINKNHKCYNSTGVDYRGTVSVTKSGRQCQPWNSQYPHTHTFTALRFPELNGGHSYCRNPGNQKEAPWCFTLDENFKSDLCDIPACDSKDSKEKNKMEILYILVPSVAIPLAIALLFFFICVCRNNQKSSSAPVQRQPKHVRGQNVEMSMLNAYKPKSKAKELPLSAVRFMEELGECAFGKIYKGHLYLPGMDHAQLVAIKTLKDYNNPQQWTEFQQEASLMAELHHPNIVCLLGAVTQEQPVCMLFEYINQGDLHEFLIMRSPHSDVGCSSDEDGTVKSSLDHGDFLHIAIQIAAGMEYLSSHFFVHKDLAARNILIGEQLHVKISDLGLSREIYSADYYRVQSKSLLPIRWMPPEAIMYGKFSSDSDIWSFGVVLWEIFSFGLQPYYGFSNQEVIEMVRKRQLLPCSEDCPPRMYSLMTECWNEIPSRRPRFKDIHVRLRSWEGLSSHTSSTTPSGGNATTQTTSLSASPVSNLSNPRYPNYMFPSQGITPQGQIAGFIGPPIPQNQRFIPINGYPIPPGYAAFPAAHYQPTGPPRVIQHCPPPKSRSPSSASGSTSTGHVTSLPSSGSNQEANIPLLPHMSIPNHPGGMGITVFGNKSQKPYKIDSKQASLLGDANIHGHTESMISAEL
T1 sequence (Q01973 30-406): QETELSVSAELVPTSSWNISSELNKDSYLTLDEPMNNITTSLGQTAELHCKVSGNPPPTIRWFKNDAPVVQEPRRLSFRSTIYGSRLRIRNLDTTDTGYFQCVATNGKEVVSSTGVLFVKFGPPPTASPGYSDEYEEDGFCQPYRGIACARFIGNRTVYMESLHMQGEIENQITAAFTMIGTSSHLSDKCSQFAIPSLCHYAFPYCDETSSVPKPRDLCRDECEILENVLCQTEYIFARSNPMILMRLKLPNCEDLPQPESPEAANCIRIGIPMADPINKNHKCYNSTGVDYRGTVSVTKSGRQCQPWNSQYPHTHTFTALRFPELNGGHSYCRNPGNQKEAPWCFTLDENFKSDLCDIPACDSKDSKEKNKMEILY
T3 sequence (Q01974 34-403): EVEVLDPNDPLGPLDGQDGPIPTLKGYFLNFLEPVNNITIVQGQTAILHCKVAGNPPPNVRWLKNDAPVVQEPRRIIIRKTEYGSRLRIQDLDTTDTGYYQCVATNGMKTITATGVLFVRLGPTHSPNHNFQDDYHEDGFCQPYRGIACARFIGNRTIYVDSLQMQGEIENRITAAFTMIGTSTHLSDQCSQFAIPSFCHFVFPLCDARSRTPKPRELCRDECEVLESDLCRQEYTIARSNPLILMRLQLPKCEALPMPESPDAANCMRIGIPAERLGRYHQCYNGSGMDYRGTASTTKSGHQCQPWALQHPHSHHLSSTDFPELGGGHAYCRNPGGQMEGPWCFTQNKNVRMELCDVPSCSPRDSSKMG

| Binder | fold stronger affinity than UC961 (by KD) (human ROR1 ECD protein [1]) | EC50 [2] | EC50 [3] | EC50 of ADCC killing of Ba/F3-ROR1 cells by NK92MI-mCD16a-hFceRI cells [4] | EC50 [7] | Kd (human ROR1 ECD protein [8]) | koff (human ROR1 ECD protein [8]) | kon (human ROR1 ECD protein [8]) | EC50 [14] | EC50 [15] | EC50 [16] | Kd (human ROR1 ECD protein [17]) | koff (human ROR1 ECD protein [17]) | kon (human ROR1 ECD protein [17]) | EC50 [18] | further results |
| --- | --- | --- | --- | --- | --- | --- | --- | --- | --- | --- | --- | --- | --- | --- | --- | --- |
| 19F6-Hu35V1 (antibody, human IgG1, kappa, V domains shown, humanized, human IgG1 / kappa) VH: QVQLQESGPGLVKPSQTLSLTCTVSGYSITSDYAWNWIRQFPGKGLEWIGYISYSGSIRYNPSLKSRVTISRDTSKNQFSLKLSSVTAADTAVYYCARGEITYYFDYWGQGTLVTVSS VL: ETTLTQSPAFMSATPGDKVTISCKASTSIDDDMNWYQQKPGEPPKLIISEGNTLRPGIPPRFSSSGYGTDFTFTINKIKSEDAATYYCLQSNDLPLTFGQGTKLEIKR | 5.4 fold | 80 pM | 120 pM | 310 pM | 150 pM | 1610 pM | 0.000863 s⁻¹ | 538000 M⁻¹ s⁻¹ |  |  |  |  |  |  |  | internalization activity in N87 cells (pHrodo dye), fold over UC961 [5]: ~7 fold; EC50 [6]: 170 pM |
| 3D8-HuC24 (antibody, human IgG1, kappa, V domains shown, humanized, human IgG1 / kappa) VH: EVQLVESGGGLVQPGGSLRLSCAASGFTFSSYAMSWVRQAPGKGLEWVASINSGGSTYYPDSVKGRFTISRDNAKNSLYLQMNSLRAEDTAVYYCARVNYYGYGDYAMDYWGQGTLVTVSS VL: DIQMTQSPSSLSASVGDRVTITCQASQDISNYLTWFQQKPGKSPKTLIHRANRLVTGVPSRFSGSGSGTDFTFTISSLQPEDIATYYCLQYDEFPYTFGGGTKVEIKR |  | 290 pM | 40 pM | 280 pM | 170 pM | 26100 pM | 0.0153 s⁻¹ | 586000 M⁻¹ s⁻¹ |  |  |  |  |  |  |  | EC50 [9]: 230 pM |
| 38F8-Hu57 (antibody, human IgG1, kappa, V domains shown, humanized, human IgG1 / kappa) VH: EVQLVESGGGLVQPGGSLRLSCAASGFTFSNYAMSWVRQAPEKRLEWVASISSGGPTYYPDSVKGRFTVSRDNSKNTLYLQMNSLRAEDTAVYYCARGYRYDVNWYFDVWGAGTMVTVSS VL: DIQMTQSPSSLSASVGDRVTITCQASQDISNYLTWFQQKPGKSPKTLIHRANRLVTGVPSRFSGSGSGTDYTFTISSLQPEDIAIYYCLQYDEFPYTFGGGTKVEIKR |  | 230 pM | 70 pM | 190 pM | 330 pM | 10000 pM | 0.00242 s⁻¹ | 241000 M⁻¹ s⁻¹ |  |  |  |  |  |  |  | EC50 [9]: 750 pM |
| Murine antibody 19F6.2.3 (antibody, V domains shown, Hybridoma antibody) VH: DVQLQESGPGLVKPSQSLSLTCTVTGYSITSDYAWNWIRQFPGNKLEWMGYISYSGSIRYNPSLKSRISITRDTSKNQFFLQLNSVTTEDTATYYCARGEITYYFDYWGQGTTLTVSS VL: DIKMTQSPASLSMAIGEKVTIRCITTTDIDDDMNWYQQKPGEPPKLLISEGNTLRPGVPSRFSSSGYGTDFVFTIENMVSEDVADYYCLQSNDLPLTFGAGTKLELK |  |  |  |  |  |  |  |  |  |  |  |  |  |  |  | EC50 (read off the curve) [10]: ~20 ng/mL; activity of inducing internalization on Jeko-1 cells (Mab-ZAP, by IC50), fold over UC961 [5]: 23.4 fold; binding result [11]: no binding (tested: about 5000 ng/ml); EC50 (read off the curve) [12]: ~10 ng/mL; EC50 (read off the curve) [13]: ~8 ng/mL |
| 19F6-Chi (antibody, human IgG1, kappa, V domains shown, Variable regions of 19F6.2.3 on human IgG1 / kappa constant regions; also called anti-human ROR1 chimeric antibody 19F6-Chi) VH: DVQLQESGPGLVKPSQSLSLTCTVTGYSITSDYAWNWIRQFPGNKLEWMGYISYSGSIRYNPSLKSRISITRDTSKNQFFLQLNSVTTEDTATYYCARGEITYYFDYWGQGTTLTVSS VL: DIKMTQSPASLSMAIGEKVTIRCITTTDIDDDMNWYQQKPGEPPKLLISEGNTLRPGVPSRFSSSGYGTDFVFTIENMVSEDVADYYCLQSNDLPLTFGAGTKLELKR | 34.6 fold |  |  |  |  |  |  |  | 325 pM | 271 pM | 266 pM | 456 pM | 0.000514 s⁻¹ | 1.13e+06 M⁻¹ s⁻¹ | 87 pM |  |
| 3D8-Chi (antibody, human IgG1, kappa, V domains shown, Variable regions of 3D8.2.3 on human IgG1 / kappa constant regions; also called anti-human ROR1 chimeric antibody 3D8-Chi) VH: EVKLVESGGGLVKPGGSLKLSCAASGFTFSSYAMSWVRQTPEKRLEWVASINSGGSTYYPDSVKGRFTISRDNARNILYLQMSSLRSEDTAMYYCARVNYYGYGDYAMDYWGQGTSVTVSS VL: DIKMTQSPSSMYASLGERVTITCKASQDINSYLSWFQQKPGKSPKTLIYRANRLVDGVPSRFSGSGSGQDYSLTISSLEYEDMGIYYCLQYDEFPYTFGGGTNLEIKR | 2 fold |  |  |  |  |  |  |  | 620 pM | 619 pM | 463 pM | 8090 pM | 0.00381 s⁻¹ | 471000 M⁻¹ s⁻¹ | 280 pM |  |
| 38F8-Chi (antibody, human IgG1, kappa, V domains shown, Variable regions of 38F8.1.1 on human IgG1 / kappa constant regions; also called anti-human ROR1 chimeric antibody 38F8-Chi) VH: EVKLVESGGDLVKPGGSLKLSCTASGFTFSNYAMSWVRQTPEKRLEWVASISSGGPTYYPDSVKGRFTVSRDNARNILYLQMSSLRSEDTAMYYCARGYRYDVNWYFDVWGAGTSVTVSS VL: DIKMTQSPSSMYASLGERVTITCKASQDINSYLTWFQQKPGKSPKTLIHRANRLVDGVPSRFSGSGSGQDYSLTISSLEYEDMGIYYCLQYDEFPYTFGGGTKLEIKR | 5 fold |  |  |  |  |  |  |  | 416 pM | 563 pM | 220 pM | 3170 pM | 0.00299 s⁻¹ | 942000 M⁻¹ s⁻¹ | 91 pM |  |
